Data on 1 substance can be found in PMC4051121.

The assay has as its target GltPh-K55C-A364C cross-linked with mercury (Pyrococcus horikoshii) (UniProt O59010). Nature of the assay: crystal structure; GltPh^in crystals grown at 4°C in 14–20% PEG 400, 0.1 M potassium citrate pH 5.0–6.0, with lipids and n-decyl-α-D-maltopyranoside; soaked in Tl+ or alkali-free solutions; trimer with three protomers.

Broadly, the stoichiometry N is a count of units in the complex or per binding partner. “GltPh-K55C-A364C cross-linked with mercury (from UniProt O59010 1-425) (natural protein)” gave a stoichiometry N of 3.
